From the Human Domainome abundance scans (Beltran et al. 2025)
± gives the uncertainty stated by the source.

B1: Gamma-crystallin S, residues 96 to 176; numbered along this chain, P22914 (parent)
chain: IQIFEKGDFSGQMYETTEDCPSIMEQFHMREIHSCKVLEGVWIFYELPNYRGRQYLLDKKEYRKPIDWGAASPAVQSFRRI
B2: Homeobox protein cut-like 2, residues 895 to 963; numbered along this chain, O14529 (parent)
chain: EVDTLELTRQVKEKLAKNGICQRIFGEKVLGLSQGSVSDMLSRPKPWSKLTQKGREPFIRMQLWLSDQL

Variants of: B1
Assay: abundance fitness (aPCA) (normalised: wild type 0, dead -1); higher = more abundant; growth selection in yeast, the domain comes from the species named
Conditions: Homo sapiens

Row | Variant | abundance fitness
1 | S72N | -0.204 ± 0.25
2 | S72Q | 0.086 ± 0.25
3 | S72P | 0.069 ± 0.16
4 | S72W | 0.007 ± 0.15
5 | S72R | -0.154 ± 0.14
6 | S72T | -0.1 ± 0.33
7 | S72Y | 0.173 ± 0.21
8 | F78V | -0.039 ± 0.16
9 | F78H | -0.229 ± 0.37
10 | F78I | -0.228 ± 0.33
11 | F78K | -0.771 ± 0.38
12 | F78L | 0.059 ± 0.3
13 | F78A | -0.136 ± 0.17
14 | F78R | -1.11 ± 0.38
15 | F78Y | -0.023 ± 0.24
16 | F78P | -0.869 ± 0.43
17 | F78S | -0.37 ± 0.21
18 | R80C | 0.059 ± 0.36
19 | R80Q | -0.491 ± 0.24
20 | R80V | 0.062 ± 0.14
21 | R80G | 0.028 ± 0.13
22 | R80A | -0.381 ± 0.27

Row | Variant | abundance fitness
23 | R80E | -0.253 ± 0.28
24 | R80L | 0.02 ± 0.17
25 | R80H | -0.573 ± 0.33
26 | R80S | -0.023 ± 0.12
27 | R80Y | -0.919 ± 0.49
28 | Q76W | -0.441 ± 0.39
29 | Q76E | -0.145 ± 0.29
30 | Q76L | -0.129 ± 0.27
31 | Q76G | -0.066 ± 0.34
32 | I81Q | 0.045 ± 0.21
33 | I81C | 0.106 ± 0.16
34 | I81D | 0.114 ± 0.27
35 | I81M | -0.31 ± 0.23
36 | I81S | -0.043 ± 0.38
37 | I81E | 0.026 ± 0.14
38 | I81R | -0.074 ± 0.14
39 | I81K | -0.186 ± 0.24
40 | I81L | -0.065 ± 0.29
41 | I81N | 0.165 ± 0.49
42 | P73G | -0.309 ± 0.16
43 | P73E | -0.215 ± 0.24
44 | P73L | 0.338 ± 0.39

Row | Variant | abundance fitness
45 | P73F | 0.27 ± 0.31
46 | P73W | 0.089 ± 0.13
47 | P73R | -0.006 ± 0.11
48 | P73D | -0.23 ± 0.24
49 | P73H | 0.006 ± 0.31
50 | P73T | -0.082 ± 0.39
51 | V75G | 0.052 ± 0.16
52 | V75A | -0.021 ± 0.16
53 | V75T | -0.211 ± 0.15
54 | V75W | -0.105 ± 0.16
55 | V75F | 0.146 ± 0.21
56 | V75R | -0.665 ± 0.23
57 | V75E | -0.821 ± 0.22
58 | V75D | -0.724 ± 0.28
59 | V75L | -0.046 ± 0.12
60 | A74C | 0.203 ± 0.16
61 | A74E | -0.139 ± 0.29
62 | A74Q | 0.034 ± 0.17
63 | A74M | -0.011 ± 0.19
64 | A74G | 0.046 ± 0.12
65 | A74V | 0.086 ± 0.2
66 | A74T | -0.159 ± 0.16

Row | Variant | abundance fitness
67 | A74R | 0.118 ± 0.24
68 | A74L | 0.113 ± 0.12
69 | A74S | -0.111 ± 0.17
70 | S77C | -0.327 ± 0.44
71 | S77G | -0.35 ± 0.13
72 | S77P | -0.457 ± 0.23
73 | S77L | -0.932 ± 0.48
74 | S77T | -0.714 ± 0.37
75 | S77A | -0.003 ± 0.18
76 | R79S | -0.036 ± 0.06
77 | R79M | -0.346 ± 0.2
78 | R79W | -0.419 ± 0.33
79 | R79Q | -0.058 ± 0.33
80 | R79T | 0.021 ± 0.21
81 | R79L | -0.406 ± 0.16
82 | R79I | -0.294 ± 0.24
83 | R79A | 0.147 ± 0.37
84 | R79V | -0.596 ± 0.26
85 | R79G | -0.413 ± 0.14
86 | R79E | -0.191 ± 0.37
87 | R79K | -0.358 ± 0.33

Variants of: B2
Assay: as above
Conditions: Homo sapiens

Row | Variant | abundance fitness
88 | I24R | -0.093 ± 0.034
89 | L50I | -0.437 ± 0.07
90 | L50S | -0.865 ± 0.052
91 | L50D | -0.607 ± 0.11
92 | A16M | -0.048 ± 0.037
93 | V29R | -0.121 ± 0.031
94 | V29C | -0.104 ± 0.064
95 | I20F | -0.058 ± 0.04
96 | I20Y | -0.179 ± 0.049
97 | E6F | -0.192 ± 0.053
98 | K45L | -0.009 ± 0.025
99 | K45E | -0.173 ± 0.074
100 | K14A | -0.064 ± 0.075
101 | K14W | -0.094 ± 0.091
102 | K14I | -0.022 ± 0.051
103 | D67L | -0.389 ± 0.028
104 | M40Q | -0.29 ± 0.063
105 | L41F | -0.088 ± 0.046
106 | L69H | -0.182 ± 0.17
107 | L69W | -0.137 ± 0.044
108 | T4W | -0.015 ± 0.039
109 | C21Y | -0.41 ± 0.097
110 | Q68S | -0.097 ± 0.061
111 | Q68I | -0.142 ± 0.047
112 | K17D | -0.175 ± 0.05
113 | L5N | 0.046 ± 0.058
114 | L5Y | -0.033 ± 0.051

Row | Variant | abundance fitness
115 | L5P | -0.076 ± 0.036
116 | L5D | -0.146 ± 0.048
117 | E1M | 0.034 ± 0.046
118 | R60K | 0.15 ± 0.042
119 | S42Q | -0.092 ± 0.046
120 | L32R | -0.179 ± 0.052
121 | G54T | -0.084 ± 0.034
122 | S36H | -0.062 ± 0.036
123 | K28C | -0.293 ± 0.055
124 | V2E | -0.019 ± 0.047
125 | V2H | -0.201 ± 0.068
126 | E56Y | -0.248 ± 0.079
127 | E56W | -0.314 ± 0.039
128 | E56C | -0.843 ± 0.069
129 | L63D | 0.07 ± 0.12
130 | P44F | -0.105 ± 0.045
131 | P44G | -0.261 ± 0.058
132 | P44Q | -0.135 ± 0.044
133 | W47C | -1.01 ± 0.15
134 | D39V | -0.389 ± 0.14
135 | S66D | 0.094 ± 0.24
136 | S66R | 0.028 ± 0.045
137 | G35W | -0.106 ± 0.031
138 | G35S | 0.027 ± 0.038
139 | I59R | 0.113 ± 0.04
140 | V11W | -0.313 ± 0.034
141 | Q34P | 0.053 ± 0.029

Row | Variant | abundance fitness
142 | Q34Y | -0.05 ± 0.038
143 | Q34K | 0.069 ± 0.045
144 | N18G | -0.098 ± 0.058
145 | N18L | 0.115 ± 0.027
146 | R23I | -0.192 ± 0.094
147 | R23C | -0.317 ± 0.091
148 | R23S | -0.101 ± 0.035
149 | R23T | -0.155 ± 0.044
150 | K49L | 0.002 ± 0.028
151 | K49H | 0.009 ± 0.039
152 | K49Q | 0.034 ± 0.034
153 | K49N | -0.16 ± 0.051
154 | L7R | -0.045 ± 0.03
155 | R9A | -0.044 ± 0.033
156 | K12E | -0.348 ± 0.074
157 | K12Q | -0.358 ± 0.061
158 | G26E | -0.397 ± 0.073
159 | G26P | -0.219 ± 0.16
160 | W64T | -1.31 ± 0.12
161 | L30A | -0.447 ± 0.083
162 | L30R | -0.18 ± 0.037
163 | Q62H | -0.127 ± 0.084
164 | E27A | -0.063 ± 0.035
165 | E27Q | -0.007 ± 0.033
166 | M61Q | -1.02 ± 0.1
167 | K53N | -0.233 ± 0.095
